According to IntAct's records for PubMed 23055042:

B1: Protein Bop (Homo sapiens), Q7L3V2 (parent)
chain: MPRGRCRQQGPRIPIWAAANYANAHPWQQMDKASPGVAYTPLVDPWIERPCCGDTVCVRTTMEQKSTASGTCGGKPAERGPLAGHMPSSRPHRVDFCWVPGSDPGTFDGSPWLLDRFLAQLGDYMSFHFEHYQDNISRVCEILRRLTGRAQAWAAPYLDGDLPLPDDYELFCQDLKEVVQDPNSFAEYHAVVTCPLPLASSQLPVAPQLPVVRQYLARFLEGLALDMGTAPRSLPAAMATPAVSGSNSVSRSALFEQQLTKESTPGPKEPPVLPSSTCSSKPGPVEPASSQPEEAAPTPVPRLSESANPPAQRPDPAHPGGPKPQKTEEEVLETEGDQEVSLGTPQEVVEAPETPGEPPLSPGF

Variants of: B1
Settings: with vdac1_human VDAC1, P21796
vdac1_human VDAC1, P21796, sequence (P21796 whole entry): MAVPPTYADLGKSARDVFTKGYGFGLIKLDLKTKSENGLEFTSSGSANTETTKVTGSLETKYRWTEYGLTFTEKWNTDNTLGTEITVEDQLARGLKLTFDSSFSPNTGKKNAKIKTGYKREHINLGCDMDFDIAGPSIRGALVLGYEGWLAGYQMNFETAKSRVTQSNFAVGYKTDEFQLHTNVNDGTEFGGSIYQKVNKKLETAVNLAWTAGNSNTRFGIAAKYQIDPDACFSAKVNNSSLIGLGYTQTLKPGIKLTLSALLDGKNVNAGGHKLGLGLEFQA

effect of a mutation on the interaction	Variant
decreasing interaction strength	MPRGRCRQQGPRIPIWAAANYANAHPWQQMDKASPGVAYTPLVDPWIERPCCGDTVCVRTTMEQKSTASGTCGGKPAERGPLAGHMPSSRPHRVDFCWVPGSDPGTFDGSPWLLDRFAAQLGDYMSFHFEHYQDNISRVCEILRRLTGRAQAWAAPYLDGDLPLPDDYELFCQDLKEVVQDPNSFAEYHAVVTCPLPLASSQLPVAPQLPVVRQYLARFLEGLALDMGTAPRSLPAAMATPAVSGSNSVSRSALFEQQLTKESTPGPKEPPVLPSSTCSSKPGPVEPASSQPEEAAPTPVPRLSESANPPAQRPDPAHPGGPKPQKTEEEVLETEGDQEVSLGTPQEVVEAPETPGEPPLSPGF [L118A]
